In assay [1] the target is superfolder green fluorescent protein (sfGFP). Put plainly: ITC.
The target is the same in assay [2]. Put plainly: AUC.
The target is the same in assay [3]. Put plainly: MST.
Assay [4] shares this target. Description: MST. This is another data set of the same source.

B1: anti-GFP nanobody (GFP-enhancer) (VHH)
VHH: QVQLVESGGALVQPGGSLRLSCAASGFPVNRYSMRWYRQAPGKEREWVAGMSSAGDRSSYEDSVKGRFTISRDDARNTVYLQMNSLKPEDTAVYYCNVNVGFEYWGQGTQVTVSS
Regarding B1, the Kd in assay [1] worked out at 1 nM; in assay [2], 1.72 nM; in assay [3], 1.52 nM; in assay [4], 1.53 nM. This molecule gave a dH in assay [1] of -11.1 kcal/mol. The stoichiometry N in assay [2] was determined as 1.
